Where a chain is given by its changes, count along the chain named. Names may count otherwise. Each block holds one binder with its values, some of them ahead of it.
Tests used:
[1] = biological target: T1, cynomolgus monkey FAP on CHOK1 cells (cynomolgus monkey); test: FACS, CHOK1 cells stably expressing cynomolgus monkey FAP
T1 construct: whole, on cells
Method: (§1) In this experiment, the binding of the anti-FAP/CD40 bispecific antibodies to stably transfected strains of CHOK1 cells that highly express human FAP, cynomolgus monkey FAP and mouse FAP was measured by FACS.

human FAP on CHO cells [2] = biological target: T2, human FAP on CHO cells (human, UniProt Q12884 1-760); test: FACS, CHOK1 cells stably expressing human FAP
T2 construct: whole, on cells; also called CHO cell line overexpressing human FAP; CHOK1/FAP
Method: as §1

[3] = biological target: T3, cynomolgus monkey CD40 on HEK293 cells (cynomolgus monkey, UniProt G7PG38 21-278); test: FACS, HEK293 cells transiently expressing cynomolgus monkey CD40
T3 construct: whole, on cells
Method: (§2) The binding of the bispecific antibodies to cell surface CD40 was measured by FACS, including HEK-Blue™CD40L cells highly expressing human CD40 (Invivogen, Cat #hkb-cd40), and HEK293 cells that were transiently transfected with cynomolgus monkey CD40 plasmids (Sino Biological, cat #CG90970-UT) and thus made to highly express cynomolgus monkey CD40. […] See FIGS. 9A, 9B and 11 and Table 21 for details.

mouse FAP on CHOK1 cells [4] = biological target: T4, mouse FAP on CHOK1 cells (mouse, UniProt P97321 1-761); test: FACS, CHOK1 cells stably expressing mouse FAP
T4 construct: whole, on cells; also called cell surface mouse FAP
Method: as §1

[5] = biological target: T5, human CD40 on cells (Raji cells; HEK-Blue CD40L cells; human dendritic cells) (human, UniProt P25942 21-277); test: FACS, HEK-Blue CD40L cells expressing human CD40
T5 construct: whole, on cells; One entry for untagged full-length human CD40 on cells; also called Raji cell surface human CD40; human cell surface CD40 antigen
Method: as §2

h-CD40-His = biological target: T6, h-CD40-His (human, UniProt P25942 21-193); test: SPR (Biacore 8K), antibody captured by anti-human IgG Fc, human CD40 analyte
T6 construct: range 21-193; Bought His-tagged recombinant protein; also called human CD40 protein (Acro, CD0-H5228); human CD40
Method: (§3) The affinities of the anti-FAP/CD40 bispecific antibodies for their antigens, the human FAP protein (Acro, FAP-H5244) and the human CD40 protein (Acro, CD0-H5228), were measured by SPR (GE Healthcare; Biacore 8K). A CM5 sensor chip was used, and HBS-EP+buffer solution (10 mM HEPES, 150 mM NaCl, 3 mM EDTA, 0.05% surfactant P20) was used as the mobile phase. An anti-human IgG (Fc) antibody was immobilized by amino coupling. The test antibodies were separately diluted in HBS-EP+buffer solution as ligands and captured by the anti-human IgG (Fc) antibody on chip channels. Antigenic proteins of different species were used as analytes.

[6] = biological target: T7, human FAP protein (Acro, FAP-H5244) (human, UniProt Q12884 26-760); test: SPR (Biacore 8K), antibody captured by anti-human IgG Fc, human FAP analyte
T7 construct: Bought protein
Method: as §3

[7] = biological target: T8, human CD40 with C-terminal Flag tag on HEK293 cells (human, UniProt P25942 21-277); test: FACS, HEK293 cells transiently expressing human CD40
T8 construct: whole, on cells; also called HEK293 cells highly expressing CD40; cell strain highly expressing human CD40
Method: The ability of the humanized antibodies to bind to cells highly expressing the human antigen protein CD40 was measured by FACS. HEK293 cells were transiently transfected with CD40 plasmids (CD40 cDNA ORF Clone, Human, C-[…] (Flag®) Tag; Sino Biological; HG10774-CF), yielding HEK293 cells highly expressing CD40. The resulting cells were resuspended in the flow cytometry staining buffer ([…]), and the test antibodies that had been serially diluted to different concentrations were added. After 1 h of incubation on ice, the cells were washed with PBS and centrifuged at 400 g for 5 min. A goat anti-human Fc antibody labeled with the fluorescent group Alexa Fluor 647 was added as a secondary antibody, and the cells were stained in an ice bath for 1 h. After two washes with PBS, the fluorescent signals on the cell surface were detected by FACS. The humanized antibodies of the present disclosure all have relatively high affinities for the cell strain highly expressing CD40.

[8] = biological target: T5, human CD40 on cells (Raji cells; …); test: cell-based or functional assay
human FAP on CHO cells [9] = biological target: T2, human FAP on CHO cells; test: FACS, CHO cells overexpressing human FAP
Method: (§4) A FACS assay was used to measure the binding properties of anti-FAP antibodies on cells. The assay comprises the following steps: A CHO cell line overexpressing human FAP was constructed and plated (1E5/well). The test antibodies were added at 100 μL/well. The highest concentration was 100 nM. A 5-fold dilution was performed, yielding 8 concentrations in total. The plate was incubated at 4° C. for 1 h. Anti-hIgG Alexa Fluor-647 was added as a secondary antibody in the ratio of 1:500. The plate was incubated at 4° C. for 30 min, and a FACS assay was performed. Antibodies that bind to FAP can mark cells. The relation between the percentage of the marked cells that over-express human FAP among all cells and the antibody concentration is shown in FIG. 1. The relation between the percentage of the marked cells that over-express mouse FAP among all cells and the antibody concentration is shown in FIG. 2.

mouse FAP on CHOK1 cells [10] = biological target: T4, mouse FAP on CHOK1 cells; test: FACS, percent of marked cells overexpressing mouse FAP, anti-hIgG Alexa Fluor-647 secondary antibody
Method: as §4

h-FAP-His = biological target: T9, h-FAP-His (human, UniProt Q12884 26-760); test: SPR, antibody captured by anti-human IgG Fc, h-FAP-His analyte
T9 construct: range 26-760; Bought recombinant protein with a His tag; also called human FAP-His protein; FAP recombinant protein with a His tag
Method: A CM5 sensor chip was used, and HBS-EP+buffer solution (10 mM HEPES, 150 mM NaCl, 3 mM EDTA, 0.05% surfactant P20) was used as the mobile phase. An anti-human IgG (Fc) antibody was made into a […] solution in a 10 mM sodium acetate buffer solution (pH 5.0) and immobilized by amino coupling. The test antibodies were diluted in HBS-EP+buffer solution and captured by the anti-human IgG (Fc) antibody on chip channels. h-FAP-His was dissolved in HBS-EP+buffer solution to prepare an analyte, and the analyte was serially diluted 2-fold. The diluted antibodies were passed through the experimental and reference channels at a flow rate of […], with 1 min of binding and 15 min of disassociation. 10 mM Glycine pH 1.5 was passed as a regeneration buffer solution for 30 s at a flow rate of […]. Data were analyzed. […] However, the binding affinities of the other anti-FAP antibodies obtained by screening at the same time in the present disclosure, such as Ab2, Ab4 and Ab5 (sequences not shown), for the antigen are lower than that of 28H1.

T5 sequence (P25942 21-277): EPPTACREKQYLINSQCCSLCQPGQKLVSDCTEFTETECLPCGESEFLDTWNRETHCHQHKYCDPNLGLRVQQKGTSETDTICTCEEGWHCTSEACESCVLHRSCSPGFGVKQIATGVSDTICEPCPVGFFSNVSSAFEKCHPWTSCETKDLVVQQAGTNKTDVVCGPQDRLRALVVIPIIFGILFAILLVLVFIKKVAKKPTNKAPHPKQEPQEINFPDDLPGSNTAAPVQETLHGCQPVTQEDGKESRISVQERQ
T6 sequence (P25942 21-193 limits assumed): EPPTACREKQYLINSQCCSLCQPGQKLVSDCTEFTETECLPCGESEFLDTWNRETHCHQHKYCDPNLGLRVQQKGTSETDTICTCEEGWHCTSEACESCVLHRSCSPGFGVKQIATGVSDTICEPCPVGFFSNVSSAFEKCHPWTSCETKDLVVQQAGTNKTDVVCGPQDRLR
T4 sequence (P97321 whole entry): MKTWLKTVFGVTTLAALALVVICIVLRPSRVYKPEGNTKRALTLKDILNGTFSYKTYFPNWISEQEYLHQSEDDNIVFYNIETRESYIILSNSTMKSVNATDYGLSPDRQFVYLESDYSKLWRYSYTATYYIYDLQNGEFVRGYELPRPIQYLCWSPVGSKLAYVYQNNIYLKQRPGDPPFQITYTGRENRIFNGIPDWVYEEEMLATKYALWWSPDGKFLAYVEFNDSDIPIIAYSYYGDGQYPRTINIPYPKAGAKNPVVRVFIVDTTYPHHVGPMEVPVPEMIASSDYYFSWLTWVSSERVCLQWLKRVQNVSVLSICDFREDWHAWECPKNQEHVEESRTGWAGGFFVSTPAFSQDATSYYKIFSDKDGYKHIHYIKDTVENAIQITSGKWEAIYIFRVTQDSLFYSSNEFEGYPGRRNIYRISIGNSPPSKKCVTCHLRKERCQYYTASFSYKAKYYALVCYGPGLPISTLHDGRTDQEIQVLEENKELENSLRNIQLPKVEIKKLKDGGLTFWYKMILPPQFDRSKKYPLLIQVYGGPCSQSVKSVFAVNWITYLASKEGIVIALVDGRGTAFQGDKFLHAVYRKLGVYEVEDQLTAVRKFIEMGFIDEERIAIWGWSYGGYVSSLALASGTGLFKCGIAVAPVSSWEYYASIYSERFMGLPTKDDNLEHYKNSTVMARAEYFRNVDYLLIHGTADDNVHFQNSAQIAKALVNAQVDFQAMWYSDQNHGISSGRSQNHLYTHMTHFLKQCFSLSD
T8 sequence (P25942 other isoform, or with tags, fused parts or gaps): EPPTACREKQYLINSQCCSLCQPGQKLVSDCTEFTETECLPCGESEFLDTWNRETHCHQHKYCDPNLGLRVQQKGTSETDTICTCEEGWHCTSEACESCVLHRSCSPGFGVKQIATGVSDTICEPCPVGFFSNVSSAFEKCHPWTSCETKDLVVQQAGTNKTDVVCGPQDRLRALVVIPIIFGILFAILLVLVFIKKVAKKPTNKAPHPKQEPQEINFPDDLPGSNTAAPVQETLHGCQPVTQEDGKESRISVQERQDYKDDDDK

B3: A297V3-Fc (Fc fusion)
chain: EVQLVESGGGLVQPGGSLRLSCAASGFTFSRYGMKWVRQAPGKGLEWVSTINSHGDTTYYADSVKGRFTISRDNAKNSLYLQMNSLRAEDTAVYYCLRIDYSDYSSRGQGTLVTVSSEPKSADKTHTCPPCPAPELLGGPSVFLFPPKPKDTLMISRTPEVTCVVVDVEHEDPEVKFNWYVDGVEVHNAKTKPREEQYNSTYRVVSVLTVLHQDWLNGKEYKCKVSSKAFPAPIEKTISKAKGQPREPQVYTLPPSRDELTKNQVSLTCLVKGFYPSDIAVEWESNGQPENNYKTTPPVLDSDGSFFLYSKLTVDKSRWQQGNVFSCSVMHEALHNHYTQKSLSLSPGK
- EC50 [7]: 1.25 nM
- Emax (MFI) [7]: 12800 MFI
- FcγRIIb-mediated activation of HEK-Blue CD40L cells, EC50 [8]: 0.006 nM
- FcγRIIb-mediated activation of HEK-Blue CD40L cells, Emax (relative fluorescence intensity) [8]: 12.8 relative fluorescence intensity

B4: A12V3-Fc (Fc fusion)
chain: EVQVVESGGGLVQPGGSLRLSCAASGFTFSNYGMKWVRQAPGKGLEWVSTILSQGGSTYYADSVKGRFTISRDNSKNTLYLQMNSLRAEDTAVYYCLRVDWSDYSPRGQGTQVTVSSEPKSADKTHTCPPCPAPELLGGPSVFLFPPKPKDTLMISRTPEVTCVVVDVEHEDPEVKFNWYVDGVEVHNAKTKPREEQYNSTYRVVSVLTVLHQDWLNGKEYKCKVSSKAFPAPIEKTISKAKGQPREPQVYTLPPSRDELTKNQVSLTCLVKGFYPSDIAVEWESNGQPENNYKTTPPVLDSDGSFFLYSKLTVDKSRWQQGNVFSCSVMHEALHNHYTQKSLSLSPGK
- EC50 [7]: 1.74 nM
- Emax (MFI) [7]: 16900 MFI
- FcγRIIb-mediated activation of HEK-Blue CD40L cells, EC50 [8]: 0.011 nM
- FcγRIIb-mediated activation of HEK-Blue CD40L cells, Emax (relative fluorescence intensity) [8]: 19.1 relative fluorescence intensity

B5: A297V2-Fc (Fc fusion)
chain: B3 chain with E1Q, L11V, V93L, L112M
- EC50 [7]: 1.07 nM
- Emax (MFI) [7]: 12800 MFI
- FcγRIIb-mediated activation of HEK-Blue CD40L cells, EC50 [8]: 0.005 nM
- FcγRIIb-mediated activation of HEK-Blue CD40L cells, Emax (relative fluorescence intensity) [8]: 20 relative fluorescence intensity

B6: A297V1-Fc (Fc fusion)
chain: B3 chain with E1Q, L11V, V93L, L97A, L112M
- EC50 [7]: 1.11 nM
- Emax (MFI) [7]: 7300 MFI
- FcγRIIb-mediated activation of HEK-Blue CD40L cells, EC50 [8]: 0.021 nM
- FcγRIIb-mediated activation of HEK-Blue CD40L cells, Emax (relative fluorescence intensity) [8]: 18.4 relative fluorescence intensity

B8: A12V1-Fc (Fc fusion)
chain: B4 chain with V4L, S75A, T78S, V93L, L97A, Q112M
- EC50 [7]: 2.13 nM
- Emax (MFI) [7]: 16600 MFI
- FcγRIIb-mediated activation of HEK-Blue CD40L cells, EC50 [8]: 0.009 nM
- FcγRIIb-mediated activation of HEK-Blue CD40L cells, Emax (relative fluorescence intensity) [8]: 21.6 relative fluorescence intensity

B9: A12V2-Fc (Fc fusion)
chain: B4 chain with V4L, S75A, T78S, V93L
- EC50 [7]: 0.42 nM
- Emax (MFI) [7]: 16600 MFI
- FcγRIIb-mediated activation of HEK-Blue CD40L cells, EC50 [8]: 0.002 nM
- FcγRIIb-mediated activation of HEK-Blue CD40L cells, Emax (relative fluorescence intensity) [8]: 18.6 relative fluorescence intensity

B10: 28H1 (antibody, V domains shown)
VH: EVQLLESGGGLVQPGGSLRLSCAASGFTFSSHAMSWVRQAPGKGLEWVSAIWASGEQYYADSVKGRFTISRDNSKNTLYLQMNSLRAEDTAVYYCAKGWLGNFDYWGQGTLVTVSS
VL: EIVLTQSPGTLSLSPGERATLSCRASQSVSRSYLAWYQQKPGQAPRLLIIGASTRATGIPDRFSGSGSGTDFTLTISRLEPEDFAVYYCQQGQVIPPTFGQGTKVEIK
notes: also called control anti-FAP antibody 28H1
- EC50 (human FAP on CHO cells [9]): 0.784 ng/mL
- EC50 (read off the curve) (mouse FAP on CHOK1 cells [10]): ~1 ng/mL
- Kd (h-FAP-His): 1.31 nM
- Ratio of KD of 28H1 to KD of test antibody (h-FAP-His): 1
- Ratio of Kd of 28H1 to Kd of test antibody (h-FAP-His): 1
- koff (h-FAP-His): 0.000255 s⁻¹
- kon (h-FAP-His): 195000 M⁻¹ s⁻¹

Further lines, results first:

- EC50 [1]: 5.65 nM
- Emax (MFI) [1]: 45000 MFI
- EC50 (human FAP on CHO cells [2]): 2.72 nM
- Emax (MFI) (human FAP on CHO cells [2]): 74000 MFI
- EC50 [3]: 2.76 nM
- Emax (MFI) [3]: 6610 MFI
- EC50 (mouse FAP on CHOK1 cells [4]): 4.32 nM
- Emax (MFI) (mouse FAP on CHOK1 cells [4]): 19500 MFI
- EC50 [5]: 2.4 nM
- Emax (MFI) [5]: 7570 MFI
B1: Ab10-A12V2-2 (bispecific antibody, human IgG1, kappa, L234A L235A)
heavy: not shown
light: DIQMTQSPSSVSASVGDRVTITCRASQGISSWLAWYQQKPGKAPKLLIYAASSLQSGVPSRFSGSGSGTDFTLTISSLQPEDFATYYCQQANSFPPAFGQGTKVEIKRTVAAPSVFIFPPSDEQLKSGTASVVCLLNNFYPREAKVQWKVDNALQSGNSQESVTEQDSKDSTYSLSSTLTLSKADYEKHKVYACEVTHQGLSSPVTKSFNRGEC
notes: divalent for CD40

- EC50 [1]: 2.26 nM
- Emax (MFI) [1]: 43200 MFI
- Kd (h-CD40-His): 29 nM
- koff (h-CD40-His): 0.002 s⁻¹
- kon (h-CD40-His): 69000 M⁻¹ s⁻¹
- EC50 (human FAP on CHO cells [2]): 2.57 nM
- Emax (MFI) (human FAP on CHO cells [2]): 64900 MFI
- EC50 [3]: 3.24 nM
- Emax (MFI) [3]: 6540 MFI
- Kd [6]: 0.294 nM
- koff [6]: 5.14e-05 s⁻¹
- kon [6]: 175000 M⁻¹ s⁻¹
- EC50 (mouse FAP on CHOK1 cells [4]): 4.43 nM
- Emax (MFI) (mouse FAP on CHOK1 cells [4]): 19000 MFI
- EC50 [5]: 0.79 nM
- Emax (MFI) [5]: 4640 MFI
B2: Ab10-A12V2-4 (bispecific antibody, human IgG1, kappa, L234A L235A)
heavy: not shown
light: B1 light
notes: Ab10 IgG1 (L234A/L235A) with two A12V2 VHHs in tandem on each heavy chain C-terminus; tetravalent for CD40

- EC50 [7]: 2.7 nM
- Emax (MFI) [7]: 8260 MFI
- FcγRIIb-mediated activation of HEK-Blue CD40L cells, EC50 [8]: 0.038 nM
- FcγRIIb-mediated activation of HEK-Blue CD40L cells, Emax (relative fluorescence intensity) [8]: 13.3 relative fluorescence intensity
B7: A297V4-Fc (Fc fusion)
chain: B3 chain with T57S, A75S, S78T, R98K
